Measurements from paper PMC7954794 (2021).

B1: S. cerevisiae Abp1 (full length; SH3 domain 535-592 mutated) / Hua2 (parent complex)
chain 1: MALEPIDYTTHSREIDAEYLKIVRGSDPDTTWLIISPNAKKEYEPESTGSSFHDFLQLFDETKVQYGLARVSPPGSDVEKIIIIGWCPDSAPLKTRASFAANFAAVANNLFKGYHVQVTARDEDDLDENELLMKISNAAGARYSIQTSSKQQGKASTPPVKKSFTPSKSPAPVSKKEPVKTPSPAPAAKISSRVNDNNDDDDWNEPELKERDFDQAPLKPNQSSYKPIGKIDLQKVIAEEKAKEDPRLVQKPTAAGSKIDPSSDIANLKNESKLKRDSEFNSFLGTTKPPSMTESSLKNDDDKVIKGFRNEKSPAQLWAERKAKQNSGNAETKAEAPKPEVPEDEPEGEPDVKDLKSKFEGLAASEKEEEEMENKFAPPPKKSEPTIISPKPFSKPQEPVKAEEAEQPKTDYKKIGNPLPGMHIEADNEEEPEENDDDWDDDEDEAAQPPLPSRNVASGAPVQKEEPEQEEIAPSLPSRNSIPAPKQEEAPEQAPEEEIEEEAEEAAPQLPSRSSAAPPPPPRRATPEKKPKENPWATAEYDYDAAEDNELTFVENDKIINIEFVDDDWWLGELEKDGSKGLFPSNYVSLGN
chain 2: MQQTKFGKMYLDHDSVVEYSEDEIVEADRITLGYKKRLSMIENQMRHLLEDFSLDVQQIEPILADLQKYYDAFLQLLQKRNKSLQCKRSTHQPVPSPMNSQTSTNAKVNLSGKLMKFQLNSVQKFDEENILRILQNKIEFEHYFQIDKGKKQKVLLLAVYQCLNGPTRLHKVLNIEGIIHNNSIRTILGKQVSSSKWTVFLYDVKLVLLAHRQDVPNLETSKMIVRYGDLFPCALYFKDHTAY

Variants of: B1
Assay: DHFR protein-fragment complementation in yeast (Abp1-DHFR F[1,2] x partner-DHFR F[3]), deep mutational scanning, second methotrexate selection vs reference; S. cerevisiae, DHFR-PCA selection in liquid with methotrexate at 30 C, two 72 h selections (the score uses the second); reference = the pre-selection culture

Variant	screen value
chain 1 N586K	-1.55 DMS score: mean over two replicates of log2(f_test/f_ref + 0.5)/ln 2, minus the synonymous-codon median (not a log2 …
chain 1 N561H	-0.956 DMS score: mean over two replicates of log2(f_test/f_ref + 0.5)/ln 2, minus the synonymous-codon median (not a log2 …
chain 1 P535E	1.04 DMS score: mean over two replicates of log2(f_test/f_ref + 0.5)/ln 2, minus the synonymous-codon median (not a log2 …
chain 1 P535F	0.0686 DMS score: mean over two replicates of log2(f_test/f_ref + 0.5)/ln 2, minus the synonymous-codon median (not a log2 …
chain 1 P535S	0.342 DMS score: mean over two replicates of log2(f_test/f_ref + 0.5)/ln 2, minus the synonymous-codon median (not a log2 …
chain 1 P535C	1.46 DMS score: mean over two replicates of log2(f_test/f_ref + 0.5)/ln 2, minus the synonymous-codon median (not a log2 …
chain 1 P535N	0.729 DMS score: mean over two replicates of log2(f_test/f_ref + 0.5)/ln 2, minus the synonymous-codon median (not a log2 …
chain 1 P535G	-0.0677 DMS score: mean over two replicates of log2(f_test/f_ref + 0.5)/ln 2, minus the synonymous-codon median (not a log2 …
chain 1 T538I	0.252 DMS score: mean over two replicates of log2(f_test/f_ref + 0.5)/ln 2, minus the synonymous-codon median (not a log2 …
chain 1 T538V	0.524 DMS score: mean over two replicates of log2(f_test/f_ref + 0.5)/ln 2, minus the synonymous-codon median (not a log2 …
chain 1 E540I	-2.91 DMS score: mean over two replicates of log2(f_test/f_ref + 0.5)/ln 2, minus the synonymous-codon median (not a log2 …
chain 1 E540M	-2.49 DMS score: mean over two replicates of log2(f_test/f_ref + 0.5)/ln 2, minus the synonymous-codon median (not a log2 …
chain 1 E540K	-2.41 DMS score: mean over two replicates of log2(f_test/f_ref + 0.5)/ln 2, minus the synonymous-codon median (not a log2 …
chain 1 Y543H	-0.676 DMS score: mean over two replicates of log2(f_test/f_ref + 0.5)/ln 2, minus the synonymous-codon median (not a log2 …
chain 1 Y541S	-1.59 DMS score: mean over two replicates of log2(f_test/f_ref + 0.5)/ln 2, minus the synonymous-codon median (not a log2 …
chain 1 E575D	-0.0843 DMS score: mean over two replicates of log2(f_test/f_ref + 0.5)/ln 2, minus the synonymous-codon median (not a log2 …
chain 1 E575S	-0.146 DMS score: mean over two replicates of log2(f_test/f_ref + 0.5)/ln 2, minus the synonymous-codon median (not a log2 …
chain 1 E575M	-0.236 DMS score: mean over two replicates of log2(f_test/f_ref + 0.5)/ln 2, minus the synonymous-codon median (not a log2 …
chain 1 V554G	0.246 DMS score: mean over two replicates of log2(f_test/f_ref + 0.5)/ln 2, minus the synonymous-codon median (not a log2 …
chain 1 V554Q	0.94 DMS score: mean over two replicates of log2(f_test/f_ref + 0.5)/ln 2, minus the synonymous-codon median (not a log2 …
chain 1 V554E	0.602 DMS score: mean over two replicates of log2(f_test/f_ref + 0.5)/ln 2, minus the synonymous-codon median (not a log2 …
chain 1 A546F	-0.502 DMS score: mean over two replicates of log2(f_test/f_ref + 0.5)/ln 2, minus the synonymous-codon median (not a log2 …
chain 1 A546R	-1.4 DMS score: mean over two replicates of log2(f_test/f_ref + 0.5)/ln 2, minus the synonymous-codon median (not a log2 …

Variant	screen value
chain 1 D548W	-0.639 DMS score: mean over two replicates of log2(f_test/f_ref + 0.5)/ln 2, minus the synonymous-codon median (not a log2 …
chain 1 D548G	-0.301 DMS score: mean over two replicates of log2(f_test/f_ref + 0.5)/ln 2, minus the synonymous-codon median (not a log2 …
chain 1 D548C	0.141 DMS score: mean over two replicates of log2(f_test/f_ref + 0.5)/ln 2, minus the synonymous-codon median (not a log2 …
chain 1 D548P	1.53 DMS score: mean over two replicates of log2(f_test/f_ref + 0.5)/ln 2, minus the synonymous-codon median (not a log2 …
chain 1 Y587K	-2.96 DMS score: mean over two replicates of log2(f_test/f_ref + 0.5)/ln 2, minus the synonymous-codon median (not a log2 …
chain 1 Y587I	-0.578 DMS score: mean over two replicates of log2(f_test/f_ref + 0.5)/ln 2, minus the synonymous-codon median (not a log2 …
chain 1 Y587T	-2.4 DMS score: mean over two replicates of log2(f_test/f_ref + 0.5)/ln 2, minus the synonymous-codon median (not a log2 …
chain 1 S589V	0.593 DMS score: mean over two replicates of log2(f_test/f_ref + 0.5)/ln 2, minus the synonymous-codon median (not a log2 …
chain 1 S589L	0.723 DMS score: mean over two replicates of log2(f_test/f_ref + 0.5)/ln 2, minus the synonymous-codon median (not a log2 …
chain 1 S589N	1.22 DMS score: mean over two replicates of log2(f_test/f_ref + 0.5)/ln 2, minus the synonymous-codon median (not a log2 …
chain 1 S589Q	0.838 DMS score: mean over two replicates of log2(f_test/f_ref + 0.5)/ln 2, minus the synonymous-codon median (not a log2 …
chain 1 E555L	-0.165 DMS score: mean over two replicates of log2(f_test/f_ref + 0.5)/ln 2, minus the synonymous-codon median (not a log2 …
chain 1 E555M	0.105 DMS score: mean over two replicates of log2(f_test/f_ref + 0.5)/ln 2, minus the synonymous-codon median (not a log2 …
chain 1 A545G	-0.421 DMS score: mean over two replicates of log2(f_test/f_ref + 0.5)/ln 2, minus the synonymous-codon median (not a log2 …
chain 1 D542N	0.0633 DMS score: mean over two replicates of log2(f_test/f_ref + 0.5)/ln 2, minus the synonymous-codon median (not a log2 …
chain 1 D542F	-0.772 DMS score: mean over two replicates of log2(f_test/f_ref + 0.5)/ln 2, minus the synonymous-codon median (not a log2 …
chain 1 D542K	-0.627 DMS score: mean over two replicates of log2(f_test/f_ref + 0.5)/ln 2, minus the synonymous-codon median (not a log2 …
chain 1 D542R	-0.244 DMS score: mean over two replicates of log2(f_test/f_ref + 0.5)/ln 2, minus the synonymous-codon median (not a log2 …
chain 1 E563N	-0.99 DMS score: mean over two replicates of log2(f_test/f_ref + 0.5)/ln 2, minus the synonymous-codon median (not a log2 …
chain 1 E563S	-0.411 DMS score: mean over two replicates of log2(f_test/f_ref + 0.5)/ln 2, minus the synonymous-codon median (not a log2 …
chain 1 E563Q	-0.159 DMS score: mean over two replicates of log2(f_test/f_ref + 0.5)/ln 2, minus the synonymous-codon median (not a log2 …
chain 1 E563K	-0.922 DMS score: mean over two replicates of log2(f_test/f_ref + 0.5)/ln 2, minus the synonymous-codon median (not a log2 …
chain 1 T552N	-0.374 DMS score: mean over two replicates of log2(f_test/f_ref + 0.5)/ln 2, minus the synonymous-codon median (not a log2 …

Further lines, results first:

screen value	Variant
2.37 DMS score: mean over two replicates of log2(f_test/f_ref + 0.5)/ln 2, minus the synonymous-codon median (not a log2 …	chain 1 N586G
2.04 DMS score: mean over two replicates of log2(f_test/f_ref + 0.5)/ln 2, minus the synonymous-codon median (not a log2 …	chain 1 N586C
-0.268 DMS score: mean over two replicates of log2(f_test/f_ref + 0.5)/ln 2, minus the synonymous-codon median (not a log2 …	chain 1 T538C
-0.703 DMS score: mean over two replicates of log2(f_test/f_ref + 0.5)/ln 2, minus the synonymous-codon median (not a log2 …	chain 1 T538K
-0.981 DMS score: mean over two replicates of log2(f_test/f_ref + 0.5)/ln 2, minus the synonymous-codon median (not a log2 …	chain 1 E540T
-2.86 DMS score: mean over two replicates of log2(f_test/f_ref + 0.5)/ln 2, minus the synonymous-codon median (not a log2 …	chain 1 E540Y
-1.72 DMS score: mean over two replicates of log2(f_test/f_ref + 0.5)/ln 2, minus the synonymous-codon median (not a log2 …	chain 1 Y541V
0.446 DMS score: mean over two replicates of log2(f_test/f_ref + 0.5)/ln 2, minus the synonymous-codon median (not a log2 …	chain 1 V554F
0.195 DMS score: mean over two replicates of log2(f_test/f_ref + 0.5)/ln 2, minus the synonymous-codon median (not a log2 …	chain 1 D548Q
0.00293 DMS score: mean over two replicates of log2(f_test/f_ref + 0.5)/ln 2, minus the synonymous-codon median (not a log2 …	chain 1 D548H
0.802 DMS score: mean over two replicates of log2(f_test/f_ref + 0.5)/ln 2, minus the synonymous-codon median (not a log2 …	chain 1 S589I
1.15 DMS score: mean over two replicates of log2(f_test/f_ref + 0.5)/ln 2, minus the synonymous-codon median (not a log2 …	chain 1 S589E
0.37 DMS score: mean over two replicates of log2(f_test/f_ref + 0.5)/ln 2, minus the synonymous-codon median (not a log2 …	chain 1 S589K
0.347 DMS score: mean over two replicates of log2(f_test/f_ref + 0.5)/ln 2, minus the synonymous-codon median (not a log2 …	chain 1 E555K
-0.189 DMS score: mean over two replicates of log2(f_test/f_ref + 0.5)/ln 2, minus the synonymous-codon median (not a log2 …	chain 1 E555Y
0.557 DMS score: mean over two replicates of log2(f_test/f_ref + 0.5)/ln 2, minus the synonymous-codon median (not a log2 …	chain 1 E555T
-0.0654 DMS score: mean over two replicates of log2(f_test/f_ref + 0.5)/ln 2, minus the synonymous-codon median (not a log2 …	chain 1 E555V
1.03 DMS score: mean over two replicates of log2(f_test/f_ref + 0.5)/ln 2, minus the synonymous-codon median (not a log2 …	chain 1 E555A
-0.673 DMS score: mean over two replicates of log2(f_test/f_ref + 0.5)/ln 2, minus the synonymous-codon median (not a log2 …	chain 1 A545E
-0.106 DMS score: mean over two replicates of log2(f_test/f_ref + 0.5)/ln 2, minus the synonymous-codon median (not a log2 …	chain 1 L551I
0.719 DMS score: mean over two replicates of log2(f_test/f_ref + 0.5)/ln 2, minus the synonymous-codon median (not a log2 …	chain 1 D542T
-0.15 DMS score: mean over two replicates of log2(f_test/f_ref + 0.5)/ln 2, minus the synonymous-codon median (not a log2 …	chain 1 D542H
-2.94 DMS score: mean over two replicates of log2(f_test/f_ref + 0.5)/ln 2, minus the synonymous-codon median (not a log2 …	chain 1 L582K
-0.883 DMS score: mean over two replicates of log2(f_test/f_ref + 0.5)/ln 2, minus the synonymous-codon median (not a log2 …	chain 1 W536H
-0.841 DMS score: mean over two replicates of log2(f_test/f_ref + 0.5)/ln 2, minus the synonymous-codon median (not a log2 …	chain 1 W536E
-0.688 DMS score: mean over two replicates of log2(f_test/f_ref + 0.5)/ln 2, minus the synonymous-codon median (not a log2 …	chain 1 T552D
0.616 DMS score: mean over two replicates of log2(f_test/f_ref + 0.5)/ln 2, minus the synonymous-codon median (not a log2 …	chain 1 T552S
-0.496 DMS score: mean over two replicates of log2(f_test/f_ref + 0.5)/ln 2, minus the synonymous-codon median (not a log2 …	chain 1 K576C
-0.475 DMS score: mean over two replicates of log2(f_test/f_ref + 0.5)/ln 2, minus the synonymous-codon median (not a log2 …	chain 1 K576T
